Assay results from patent US20140256626A1 (priority 2011, published 2014).
Like-named read-outs stand apart in the source and are kept apart here.

Tests used:
[1] = format: physicochemical; details: for t1/2 @ pH 7.4: buffer; for Rate of exenatide release: 50 μM conjugate
Method: Release rates were determined to be:

[2] = rat, in vivo, iv
Method: The solution was administered by i.v. injection to cannulated male Sprague Dawley rats at 100 μL/100 g body weight. A single animal was used for a complete time course, repeated in duplicate.
Rat serum samples were thawed on ice, and 200 μL was adjusted to pH ˜5.5 by addition of 5 μL of 2M acetic acid.
Proteins were precipitated from 50 μL of acidified rat serum by addition of 150 μL of cold MeOH containing 40 μg/mL Fmoc-Lys (DNP)OH as an internal standard for volume deviations. The samples were kept on ice for 2 hours and centrifuged at 14,000 rpm for 10 min at 4° C. The supernatant was analyzed on a Shimadzu™ HPLC with a Phenomenex® Jupiter® C18 300A 5 μm column (4.6×150 mm) at 40° C. The mobile phase consisted of H2O/0.1% TFA (Buffer A) and ACN/0.1% TFA (Buffer B) at 1 mL/min. […] Quantitation was performed by comparison of peak areas to standard solutions of mPEG-coumarin after MeOH precipitation in rat serum (Sigma-Aldrich) as above. Any volume deviations were corrected using the peak area of the Fmoc-Lys (DNP)OH internal standard in each sample.
Serum samples were treated with 2 volumes of acetonitrile (ACN) and centrifuged. The supernatant was dried, reconstituted in 1% formic acid and applied to HPLC (below). The sample was eluted by a water-ACN gradient containing 1% formic acid. […] HPLC-MS/MS analyses were carried out on a Sciex™ API-5500 mass spectrometer coupled with a Shimadzu™ HPLC system. The Shimadzu™ HPLC system consisted of two LC-30AD HPLC pumps and a SIL-30AC autosampler with a 100 μL loop installed. The chromatographic separations were achieved on a Jupiter® (Phenomenex®) 5 μm C18, 300 Å, HPLC column, 2.0×150 mm, with mobile phase gradients. The mass spectrometer was operated in positive ESI mode and the resolution setting used was unit for both Q1 and Q3. […] Peak-area integrations were performed using Analyst software (version 1.5.2) from AB Sciex™.

| Substance | t1/2 @ pH 7.4 [1] [h] | Rate of exenatide release ([1]; pH 9.5, 100 mM sodium borate) | Rate of exenatide release ([1]; pH 8.5, 100 mM bicine) | Conjugate clearance rate [2] [h⁻¹] | Conjugate clearance t1/2 [2] [h] | Plasma half-life of the conjugate [2] [h] |
| --- | --- | --- | --- | --- | --- | --- |
| CH3—SO2: DBCO-Lys(DEAC)-[GL4-400] 40 kDa PEG conjugated to N-[7-azido-1-(methylsulfonyl)-2-heptyloxycarbonyl]-exenatide | 483 | .00301 h⁻¹ | – | – | – | – |
| 4-chlorophenyl-SO2: DBCO-Lys(DEAC)-[GL4-400] 40 kDa PEG conjugated to N-[7-azido-1-(4-chlorophenylsulfonyl)-2-heptyloxycarbonyl]-exenatide | 59 | – | .00248 h⁻¹ | – | – | – |
| Phenyl-SO2: DBCO-Lys(DEAC)-[GL4-400] 40 kDa PEG conjugated to N-[7-azido-1-(phenylsulfonyl)-2-heptyloxycarbonyl]-exenatide | 133 | .00726 h⁻¹ | – | 0.015 | 46 | 28 |
